The numbers were not newly measured in article PMC4596477, “Interaction of Myosin Phosphatase Target Subunit (MYPT1) with Myosin Phosphatase-RhoA Interacting Protein (MRIP): A Role of Glutamic Acids in the Interaction” (PLoS ONE, 2015), which cites them from elsewhere.

The test system of this data set is full-length MYPT1. The settings on record: immunoprecipitation and immunoblotting; ref [7],[11],[12]; cited from earlier work. The source says:
It is, however, not clear which residues of MRIP are critical for its binding to MYPT1.

B1: MRIP: Myosin phosphatase-RhoA interacting protein (protein, UniProt Q6WCQ1 1-1025, looked up)
chain: MSAAKENPCRKFQANIFNKSKCQNCFKPRESHLLNDEDLTQAKPIYGGWLLLAPDGTDFDNPVHRSRKWQRRFFILYEHGLLRYALDEMPTTLPQGTINMNQCTDVVDGEGRTGQKFSLCILTPEKEHFIRAETKEIVSGWLEMLMVYPRTNKQNQKKKRKVEPPTPQEPGPAKVAVTSSSSSSSSSSSIPSAEKVPTTKSTLWQEEMRTKDQPDGSSLSPAQSPSQSQPPAASSLREPGLESKEEESAMSSDRMDCGRKVRVESGYFSLEKTKQDLKAEEQQLPPPLSPPSPSTPNHRRSQVIEKFEALDIEKAEHMETNAVGPSPSSDTRQGRSEKRAFPRKRDFTNEAPPAPLPDASASPLSPHRRAKSLDRRSTEPSVTPDLLNFKKGWLTKQYEDGQWKKHWFVLADQSLRYYRDSVAEEAADLDGEIDLSACYDVTEYPVQRNYGFQIHTKEGEFTLSAMTSGIRRNWIQTIMKHVHPTTAPDVTSSLPEEKNKSSCSFETCPRPTEKQEAELGEPDPEQKRSRARERRREGRSKTFDWAEFRPIQQALAQERVGGVGPADTHEPLRPEAEPGELERERARRREERRKRFGMLDATDGPGTEDAALRMEVDRSPGLPMSDLKTHNVHVEIEQRWHQVETTPLREEKQVPIAPVHLSSEDGGDRLSTHELTSLLEKELEQSQKEASDLLEQNRLLQDQLRVALGREQSAREGYVLQATCERGFAAMEETHQKKIEDLQRQHQRELEKLREEKDRLLAEETAATISAIEAMKNAHREEMERELEKSQRSQISSVNSDVEALRRQYLEELQSVQRELEVLSEQYSQKCLENAHLAQALEAERQALRQCQRENQELNAHNQELNNRLAAEITRLRTLLTGDGGGEATGSPLAQGKDAYELEVLLRVKESEIQYLKQEISSLKDELQTALRDKKYASDKYKDIYTELSIAKAKADCDISRLKEQLKAATEALGEKSPDSATVSGYDIMKSKSNPDFLKKDRSCVTRQLRNIRSKSVIEQVSWDT
modifications: full-length
For the molecule B1, the “interaction with full-length MYPT1” value is “interacts with the full-length MYPT1”.
